Experimental data: article PMC5131902, “Pheromone Recognition and Selectivity by ComR Proteins among Streptococcus Species” (PLoS Pathogens, 2016)
Like-named read-outs stand apart in the source and are kept apart here. Ends that are not written are not given here.

Columns and labels:
[1] = biological target: ComR S. dysgalactiae subsp. equisimilis ATCC35666 (Streptococcus dysgalactiae subsp. equisimilis ATCC35666)
S. suis S10 (serotype 2) = conditions: cited from earlier work
Description: One observed difference from published ComR/XIP behavior was for the two S. pyogenes strains used in our study, MGAS5005 (serotype M1) and MGAS315 (serotype M3).

[2] = biological target: ComR S. pyogenes MGAS5005 (Streptococcus pyogenes MGAS5005)
S. mutans UA159 ComR = S. mutans UA159 ComR (Streptococcus mutans serotype c, UniProt Q8DWI6); assay: S. mutans ES1 test-bed PcomS::luxAB luciferase reporter assay; assay type: cell-based
Description: (§1) The entire known SigX regulon, as well as the proximal transcriptional regulator of sigX, ComR, is conserved throughout the Mutans, Bovis, and Pyogenic groups (Fig 1, top). Additionally, within these groups, the mature form of the peptide pheromone ComS contains a conserved double-tryptophan motif (‘WW’) (Fig 1, bottom). This led us to ask whether the putative ComRs encoded by members of these groups could respond to cognate and heterologous XIPs to activate comS and sigX transcription. To test this possibility, we developed a strain that would allow for control of the ComR and XIP variants present within the system. […] Additionally, when a multi-copy plasmid carrying wild-type comR was provided to a ΔcomR strain, the ability to naturally transform exogenous genomic DNA was rescued. With these observations in mind, we created an S. mutans UA159 ‘test bed’ strain, ES1, in which the endogenous comRS locus was replaced with a spectinomycin-resistance cassette (Fig 2A). Because this strain contains neither comS nor comR, it is unable to produce or respond to XIP pheromones. A plasmid was used as a vehicle to provide different comR variants, under control of the native promoter, with adjoining comR-comS intergenic regions containing ComR binding sites and the comS promoter. The plasmid also contains the bacterial luciferase genes, luxAB, under transcriptional control of the cloned comS promoter. Clones harboring each comR-variant plasmid were constructed, grown, and treated with titrations of synthetic XIP peptides. Since productive interaction between ComR and XIP results in transcriptional activation of the comS promoter, we could test the functionality of ComR–XIP interactions by assessing the specific bioluminescent activity of each culture. To ensure that the test bed recapitulated observed results seen in wild-type S. mutans UA159, we assessed the UA159 ComR with serial dilutions of the cognate XIP-C7 (the C-terminal seven amino acids of ComS) and measured bioluminescence levels (Fig 2B).
(§2) Predicted XIP peptide sequences were determined by identifying open reading frames downstream from the putative ComR gene by using NCBI BLAST to identify UA159 ComR homologues. One to three different lengths of peptide from each species were ordered from NeoScientific (Woburn, MA). Peptide crude extracts (purity 45–75%) were dissolved in DMSO (Fisher Scientific, Hampton, NH) at a concentration of 1 mM based upon the specific purity and stored at -20° C.
(§3) Starter cultures, from cultures stored in 20% glycerol at -80° C, of each ComR reporter strain were diluted to an OD600 of 0.05 in CDM + erm and incubated at 37° C until an OD^600 of ~0.1. 190 uL aliquots of reporter strain cell culture were added to wells within a 96-well (Greiner Bio-One; Monroe, NC) lidded, clear, flat-bottom plate, each containing 10 μL of DMSO or a 5x-serial dilution of the peptide of interest in DMSO (final concentration of 5% DMSO/well). Concentrations tested for each peptide were 1.3 nM, 6.4 nM, 38.6 nM, 231.5 nM, 1388.9 nM, […], and 50 μM. […] Prepared plates were lidded and sealed with Parafilm (Bemis, Oshkosh, WI) before incubation at 37° C, with continuous shaking, in a Synergy 2 plate reader (Biotek). OD600 and luminescence readings were measured every 15 min. over a 4-hr period. The maximum RLU measurement per well, between 60–240 minutes was recorded using Gen5 data analysis software. […]

[3] = biological target: ComR S. suis 05ZYH33 (residues 1–304), wild-type (Streptococcus suis 05ZYH33)
[4] = biological target: ComR S. suis N220A (Streptococcus suis 05ZYH33); assay: ITC; 300 μM XIP injected into 20 μM ComR; VP-ITC, 25°C; 20 mM Tris pH 7.5, 100 mM NaCl, 1 mM β-ME; one-site model
[5] = biological target: ComR S. suis 05ZYH33 (residues 1–304), wild-type (Streptococcus suis 05ZYH33); assay: as above
[6] = test system: S. agalactiae 2603 v/r ComR; assay: S. mutans ES1 test-bed PcomS::luxAB luciferase reporter assay; assay type: cell-based; conditions: synthetic peptides titrated to ES1 reporter strain carrying ComR S. agalactiae 2603
Description: as §1, §2, §3

[7] = biological target: ComR S. bovis 83 (Streptococcus bovis Sbo 83)
[8] = biological target: ComR S. bovis SboB (Streptococcus bovis SboB)
[9] = biological target: ComR S. mutans UA159 (Streptococcus mutans UA159)
[10] = biological target: ComR S. mutans UA159 (Streptococcus mutans UA159); remark: listed apart in the source

With “S. dysgalactiae subsp. equisimilis ATCC35666 XIP-C7 (peptide)” as the molecule, how does the EC50 of P comS::luxAB luciferase activity in the S. mutans ES1 test bed [1] read?
Its EC50 of P comS::luxAB luciferase activity in the S. mutans ES1 test bed is 15000 nM.

What about the increase in reporter activity at 50 μM XIP [1] of the same molecule?
Its increase in reporter activity at 50 μM XIP is 10 fold.

With GNWGTWVEE [XIP-C9] as the molecule, how does the “transformability upon addition of XIP length variant” value (S. suis S10 (serotype 2)) read?
The value was “highest transformability”.

Which P comS::luxAB transcription at 50 μM XIP, relative to the maximum with the cognate XIP [2] does the source give for S. pyogenes MGAS315 XIP-C8 (peptide) here?
The P comS::luxAB transcription at 50 μM XIP, relative to the maximum with the cognate XIP was 25%.

Which EC50 (S. mutans UA159 ComR) does the source give for GLDWWSL [UA159 C7] here?
The EC50 was 0.17 nM.

Which EC50 of P comS::luxAB transcription in the S. mutans ES1 test bed [2] does the source give for S. pyogenes MGAS5005 XIP-C8 (peptide) here?
Its EC50 of P comS::luxAB transcription in the S. mutans ES1 test bed is 250 nM.

And the increase of P comS::luxAB transcription at 50 μM XIP [2]?
Its increase of P comS::luxAB transcription at 50 μM XIP is 25 fold.

With S. suis 05ZYH33 XIP-C7 (peptide) as the molecule, how does the EC50 of P comS::luxAB luciferase activity in the S. mutans ES1 test bed [3] read?
The EC50 of P comS::luxAB luciferase activity in the S. mutans ES1 test bed was 93 nM.

And the Kd [4]?
Its Kd is 13700 nM.

And the dH [4]?
The dH was -7.28 kcal/mol.

And the stoichiometry N [4]?
Its stoichiometry N is 1.09.

What about the Kd [5] of the same molecule?
The Kd was 862 nM.

And the dH [5]?
The dH was -13.6 kcal/mol.

What about the stoichiometry N [5] of the same molecule?
Its stoichiometry N is 0.96.

For “TMGWWGL [NEM316 XIP, putative Type-II XIP of S. agalactiae strain NEM316, TMGWWGL]”, which “reporter induction of ComR S. agalactiae 2603 (maximum relative luciferase activity), in words” value [6] is on record?
The value was “unable to activate”.

With “TGWWMLG [EBS2, designed XIP agonist of ComR S. agalactiae 2603, TGWWMLG]” as the molecule, how does the “reporter induction of ComR S. agalactiae 2603 (maximum relative luciferase activity), in words” value [6] read?
Its value is “robust reporter induction”.

Which “reporter induction of ComR S. agalactiae 2603 (maximum relative luciferase activity), in words” value [6] does the source give for “ETEWWNVG [EBS3, designed XIP of eight residues for ComR S. agalactiae 2603, ETEWWNVG]” here?
Its value is “did not elicit strong reporter activity”.

Which EC50 of P comS::luxAB luciferase activity in the S. mutans ES1 test bed [7] does the source give for S. bovis 83 XIP-C7 (peptide) here?
Its EC50 of P comS::luxAB luciferase activity in the S. mutans ES1 test bed is under 1 nM.

Which EC50 of P comS::luxAB luciferase activity in the S. mutans ES1 test bed [8] does the source give for S. bovis SboB XIP-C7 (peptide) here?
The EC50 of P comS::luxAB luciferase activity in the S. mutans ES1 test bed was under 1 nM.

With “LDWWSLG [EBS1, designed XIP agonist of ComR S. agalactiae 2603, LDWWSLG]” as the molecule, how does the “reporter induction of ComR S. agalactiae 2603 (maximum relative luciferase activity), in words” value [6] read?
Its value is “robust reporter induction”.

B1: S. mutans UA159 XIP-C7 (peptide)
peptide: GLDWWSL
With B1 as the molecule, how does the EC50 of P comS::luxAB luciferase activity in the S. mutans ES1 test bed [9] read?
The EC50 of P comS::luxAB luciferase activity in the S. mutans ES1 test bed was 0.2 nM.

And the maximal induction of luciferase activity in the test bed, at 2 nM XIP [9]?
The maximal induction of luciferase activity in the test bed, at 2 nM XIP was 140 fold.

What about the EC50 of P comS::luxAB luciferase activity in the S. mutans ES1 test bed [10] of the same molecule?
Its EC50 of P comS::luxAB luciferase activity in the S. mutans ES1 test bed is 88 nM.

And the Kd [4]?
Its Kd is 6060 nM.

What about the dH [4] of the same molecule?
The dH was -4.26 kcal/mol.

And the stoichiometry N [4]?
Its stoichiometry N is 0.95.

And the Kd [5]?
The Kd was 5880 nM.

What about the dH [5] of the same molecule?
The dH was -6.01 kcal/mol.

What about the stoichiometry N [5] of the same molecule?
The stoichiometry N was 1.03.
